In patent US9907791B2, “Ron inhibitors for use in preventing and treating bone loss” (UNIVERSITY OF UTAH RESEARCH FOUNDATION, priority 2014, dated 2018):

Key:
Assay type in all cases: cell-based, mice
bone marrow osteoclasts [1] = test: Osteoclast resorption assay; conditions: 100 pg/mL MSP daily day 9 to 12
Description: Bone marrow osteoclasts were generated from 6 to 8 week old WT and RonTK−/− mice. Briefly, bone marrow was isolated from hindlimb bones and plated in α-MEM media containing 10% heat-inactivated fetal bovine serum (FBS, Sigma, St. Louis, Mo.), 100 units/mL penicillin-streptomycin (Hyclone), and 33 ng/mL human macrophage colony-stimulating factor (hM-CSF) (PeproTech, Rocky Hill, N.J.) for 24 hours. Non-adherent cells were collected and frozen for later use. To assess resorption activity, bone marrow precursor cells were thawed and seeded at a density of 1×10^5 cells per well in BioCoat Osteologic slides (BD Biosciences, San Jose, Calif.) in α-MEM media containing 10% FBS and antibiotics. After adhering overnight, media was removed and media containing 33 ng/mL hM-CSF and 9 ng/mL muRANKL (R & D systems, Minneapolis, Minn.) was added. The medium was changed every 3 days depending on acidification, and the assay was terminated as indicated. Recombinant human MSP was prepared and added daily as indicated. Cells were removed with 6% bleach and slides were viewed microscopically using phase-contrast with 20× magnification. Osteolytic resorption area within 5 representative fields was determined using Image J software, experiments were performed in triplicate. Recombinant MSP was prepared as follows (to be described in detail elsewhere): Concentrated, serum-free media from an MCF7 cell line engineered to overexpress MSP was cleaved with kallikrein (Invitrogen, Waltham, Mass.; 4 ng of kallikrein/1 μg of supernatant protein at 37° C. for 2.5 hours). The reaction was diluted to 20 mL with 10 mM sodium phosphate, pH 7.4 and loaded onto a 5 mL HiTrap heparin column (Millipore, Billerica, Mass.) equilibrated with 20 mL of 10 mM sodium phosphate, pH 7.4, at a rate of 1 mL/min. The column was washed with 10 mL of 10 mM sodium phosphate, pH 7.4, at a rate of 1 mL/min. […]

c-Src = test: Western blot of osteoclast lysates, phospho-Src
Description: Cells were serum starved (0.5% FBS) for 3 hours prior to lysate collection. Inhibitors were added 1 hour prior to lysis and MSP was added 15 min prior to lysis when indicated. Cells were washed with 1×PBS and harvested in lysis buffer (25 mM Tris-HCl, pH 7.5, 0.42 M NaCl, 1.5 mM MgCl2, 0.5 mM EDTA, 1 mM DTT, 25% sucrose, and 0.1% Triton X-100) plus 100× protease arrest (Bioscience, Bozeman, Mont.) and 100× orthovanadate. Primary antibodies used for immunoblotting include: anti-MSP (Santa Cruz, sc-6090, Dallas, Tex.) at a 1:250 dilution, anti-pan Akt (Cell Signaling, #4691S, Beverly, Mass.) at a 1:1000 dilution, anti-pan Erk (Cell Signaling, #4695, Beverly, Mass.) at a 1:1000 dilution, anti-phospho Akt (Cell Signaling, #9271 L, Beverly, Mass.) at a 1:500 dilution, anti-phospho Erk (Cell Signaling, #4370S, Beverly, Mass.) at a 1:500 dilution, anti-Src (Cell Signaling, #2110, Beverly, Mass.) at a 1:500 dilution, and anti-phospho Src (Y416) (Cell Signaling, #2113, Beverly, Mass.) at a 1:500 dilution. The secondary antibodies used were HRP-conjugated anti-goat IgG (Santa Cruz, Dallas, Tex.) and anti-rabbit IgG (Santa Cruz, Dallas, Tex.). Chemiluminescent signals were detected using Immun-Star HRP (BioRad, Hercules, Calif.).

[2] = system: WT bone marrow precursor cells; test: Osteoclast differentiation (TRAP+ osteoclasts); conditions: 100 pg/mL MSP in presence of M-CSF and RANKL
Description: Bone marrow precursor cells were thawed and seeded at a density of 2×10^5 cells per well in a 24-well plate containing glass coverslips in α-MEM media containing 10% FBS and antibiotics. After adhering overnight, media was removed and media containing 33 ng/mL hM-CSF and 9 ng/mL muRANKL was added. Cells were allowed to differentiate for 7 days with media changed every 3 days. Coverslips were then imaged microscopically using phase contrast to determine osteoclast number in each well. To test survival, factor-containing media was removed and α-MEM media containing 10% FBS was added as well as MSP as indicated. Cells were cultured for an additional 48 hours, fixed with 10% NBF for 10 minutes and washed with 1×PBS. For TRAP fluorescent staining, the leukocyte acid phosphatase kit (Sigma, St. Louis, Mo.) was used according to the manufacturer's instructions, with the substitution of 200 μM ELF97 (Invitrogen, Waltham, Mass.) as a phosphatase substrate. […] The number of multinucleated TRAP+ cells (containing 4 or more nuclei) within 5 representative fields were included for quantification. […]
M-CSF and RANKL were present continuously beginning on day 1 until experimental analysis. […] TRAP+ cells were identified by fluorescent TRAP stain and cells with 4 or more nuclei were counted (***p<0.0001). […]

bone marrow osteoclasts [3] = test: Osteoclast survival assay; conditions: 100 pg/mL MSP daily from day 7 for 48 hours
Description: Bone marrow precursor cells were thawed and seeded at a density of 2×10^5 cells per well in a 24-well plate containing glass coverslips in α-MEM media containing 10% FBS and antibiotics. After adhering overnight, media was removed and media containing 33 ng/mL hM-CSF and 9 ng/mL muRANKL was added. Cells were allowed to differentiate for 7 days with media changed every 3 days. Coverslips were then imaged microscopically using phase contrast to determine osteoclast number in each well. To test survival, factor-containing media was removed and α-MEM media containing 10% FBS was added as well as MSP as indicated. Cells were cultured for an additional 48 hours, fixed with 10% NBF for 10 minutes and washed with 1×PBS. For TRAP fluorescent staining, the leukocyte acid phosphatase kit (Sigma, St. Louis, Mo.) was used according to the manufacturer's instructions, with the substitution of 200 μM ELF97 (Invitrogen, Waltham, Mass.) as a phosphatase substrate. Coverslips were incubated in TRAP solution for 15 minutes at 37 degrees, washed with 1×PBS and counterstained with DAPI. The number of multinucleated TRAP+ cells (containing 4 or more nuclei) within 5 representative fields were included for quantification. Experiments were performed in triplicate.

B1: MSP: recombinant human macrophage-stimulating protein, the RON ligand (protein)
chain: QRSPLNDFQVLRGTELQHLLHAVVPGPWQEDVADAEECAGRCGPLMDCRAFHYNVSSHGCQLLPWTQHSPHTRLRRSGRCDLFQKKDYVRTCIMNNGVGYRGTMATTVGGLPCQAWSHKFPNDHKYTPTLRNGLEENFCRNPDGDPGGPWCYTTDPAVRFQSCGIKSCREAACVWCNGEEYRGAVDRTESGRECQRWDLQHPHQHPFEPGKFLDQGLDDNYCRNPDGSERPWCYTTDPQIEREFCDLPRCGSEAQPRQEATTVSCFRGKGEGYRGTANTTTAGVPCQRWDAQIPHQHRFTPEKYACKDLRENFCRNPDGSEAPWCFTLRPGMRAAFCYQIRRCTDDVRPQDCYHGAGEQYRGTVSKTRKGVQCQRWSAETPHKPQFTFTSEPHAQLEENFCRNPDGDSHGPWCYTMDPRTPFDYCALRRCADDQPPSILDPPDQVQFEKCGKRVDRLDQRRSKLRVVGGHPGNSPWTVSLRNRQGQHFCGGSLVKEQWILTARQCFSSCHMPLTGYEVWLGTLFQNPQHGEPSLQRVPVAKMVCGPSGSQLVLLKLERSVTLNQRVALICLPPEWYVVPPGTKCEIAGWGETKGTGNDTVLNVALLNVISNQECNIKHRGRVRESEMCTEGLLAPVGACEGDYGGPLACFTHNCWVLEGIIIPNRVCARSRWPAVFTRVSVFVDWIHKVMRLG
modifications: left off: small tags and cut ends
notes: recombinant human macrophage-stimulating protein, the RON ligand
resorptive capacity of RonTK−/− osteoclasts (bone marrow osteoclasts [1]): no effect
resorptive capacity of WT osteoclasts (bone marrow osteoclasts [1]): significant increase
phosphorylated c-Src in WT osteoclasts (c-Src): increased Src phosphorylation
osteoclast differentiation [2]: did not increase osteoclast differentiation
number of surviving osteoclasts without RANKL and M-CSF (bone marrow osteoclasts [3]): significantly augmented
